Laboratory results published in US20080182978A1, “ANTI-NGF ANTIBODIES AND METHODS USING SAME” (RINAT NEUROSCIENCE CORP, priority 2002, published 2008).

Test: Dose response of E3 on body weight in arthritic rats (Example 9)
Type: in vivo, rat
Procedure: The ability of E3 to produce reduction in pain in arthritic rats was further investigated by examining the dose response relationship between E3 administration and pain reduction. Rats were treated with adjuvant to induce arthritis as described above. Ten rats not injected with adjuvant were used as non-arthritic controls. Fourteen days after adjuvant injection, animals were qualified into the study based on the criteria stated above, randomized into eight groups of ten rats and tested for the intensity of their vocalization response. They were then dosed on day 14 with saline, or 0.003 mg/kg, 0.01 mg/kg, 0.03 mg/kg, 0.1 mg/kg, 0.3 mg/kg, 1 mg/kg or 5 mg/kg of E3 antibody as described above. Animals were tested for their vocalization response on days 16, 18, 20, and 24. Animals were redosed with saline or the same dose of E3 on day 18 after the vocalization testing. Animals were also weighed each day, starting at day 14. Thus, animals were dosed twice with a given dose of antibody or saline on days 14 and 18, and assessed for pain five times, on days 14, 16, 18, 20 and 24. Data are shown in Tables 20-22 and in FIGS. 20-22.
The effect of treating animals with various doses of anti-NGF antibody E3 on body weight was statistically analyzed by using two-way ANOVA to compare the results obtained pairwise between arthritic animals treated with vehicle with those treated with a given dose of antibody E3. […] At all higher dose of E3, the difference between treated and untreated arthritic animals was significant (p= or <0.0001). […]

[1] = E3 0.1 mg/kg on days 14+18, day 17
[2] = E3 0.1 mg/kg on days 14+18, day 18
[3] = E3 0.1 mg/kg on days 14+18, day 20
[4] = E3 0.1 mg/kg on days 14+18, day 21
[5] = E3 0.1 mg/kg on days 14+18, day 23
[6] = E3 0.1 mg/kg on days 14+18, day 24
[7] = E3 0.3 mg/kg on days 14+18, day 14
[8] = E3 0.3 mg/kg on days 14+18, day 15
[9] = E3 0.3 mg/kg on days 14+18, day 16
[10] = E3 0.3 mg/kg on days 14+18, day 17
[11] = E3 0.3 mg/kg on days 14+18, day 18
[12] = E3 0.3 mg/kg on days 14+18, day 20
[13] = E3 0.3 mg/kg on days 14+18, day 21
[14] = E3 0.3 mg/kg on days 14+18, day 23
[15] = E3 0.3 mg/kg on days 14+18, day 24
[16] = E3 1.0 mg/kg on days 14+18, day 14
[17] = E3 1.0 mg/kg on days 14+18, day 15
[18] = E3 1.0 mg/kg on days 14+18, day 16
[19] = E3 1.0 mg/kg on days 14+18, day 17
[20] = E3 1.0 mg/kg on days 14+18, day 18
[21] = E3 1.0 mg/kg on days 14+18, day 20
[22] = E3 1.0 mg/kg on days 14+18, day 21
[23] = E3 1.0 mg/kg on days 14+18, day 23
[24] = E3 1.0 mg/kg on days 14+18, day 24
[25] = E3 5.0 mg/kg on days 14+18, day 14
[26] = E3 5.0 mg/kg on days 14+18, day 15
[27] = E3 5.0 mg/kg on days 14+18, day 16
[28] = E3 5.0 mg/kg on days 14+18, day 17
[29] = E3 5.0 mg/kg on days 14+18, day 18
[30] = E3 5.0 mg/kg on days 14+18, day 20
[31] = E3 5.0 mg/kg on days 14+18, day 21
[32] = E3 5.0 mg/kg on days 14+18, day 23
[33] = E3 5.0 mg/kg on days 14+18, day 24

B1: E3: humanized, affinity matured anti-NGF antagonist antibody; variable regions SEQ ID NO:1 and 2; human IgG2a (A330P331 to S330S331), kappa (antibody, V domains shown)
VH: QVQLQESGPGLVKPSETLSLTCTVSGFSLIGYDLNWIRQPPGKGLEWIGIIWGDGTTDYNSAVKSRVTISKDTSKNQFSLKLSSVTAADTAVYYCARGGYWYATSYYFDYWGQGTLVTVS
VL: DIQMTQSPSSLSASVGDRVTITCRASQSISNNLNWYQQKPGKAPKLLIYYTSRFHSGVPSRFSGSGSGTDFTFTISSLQPEDIATYYCQQEHTLPYTFGQGTKLEIKRT
modifications: human IgG2a constant (A330S/P331S) and kappa constant missing
- Body weight normalized to day 14 (E3 0.1 mg/kg on days 14+18, day 16): 101.07
- Body weight normalized to day 0 [1]: 115.99
- Body weight normalized to day 14 [1]: 101.89
- Body weight normalized to day 0 [2]: 118.01
- Body weight normalized to day 14 [2]: 103.69
- Body weight normalized to day 0 [3]: 122.17
- Body weight normalized to day 14 [3]: 107.36
- Body weight normalized to day 0 [4]: 123.49
- Body weight normalized to day 14 [4]: 108.50
- Body weight normalized to day 0 [5]: 124.35
- Body weight normalized to day 14 [5]: 109.25
- Body weight normalized to day 0 [6]: 123.77
- Body weight normalized to day 14 [6]: 108.77
- Body weight normalized to day 0 (E3 0.3 mg/kg on days 14+18, day 0): 100.00
- Body weight normalized to day 0 (E3 0.3 mg/kg on days 14+18, day 1): 99.26
- Body weight normalized to day 0 (E3 0.3 mg/kg on days 14+18, day 2): 102.98
- Body weight normalized to day 0 (E3 0.3 mg/kg on days 14+18, day 3): 106.95
- Body weight normalized to day 0 (E3 0.3 mg/kg on days 14+18, day 4): 110.50
- Body weight normalized to day 0 (E3 0.3 mg/kg on days 14+18, day 7): 120.03
- Body weight normalized to day 0 (E3 0.3 mg/kg on days 14+18, day 8): 121.38
- Body weight normalized to day 0 (E3 0.3 mg/kg on days 14+18, day 9): 121.57
- Body weight normalized to day 0 (E3 0.3 mg/kg on days 14+18, day 10): 118.27
- Body weight normalized to day 0 (E3 0.3 mg/kg on days 14+18, day 11): 116.02
- Body weight normalized to day 0 [7]: 108.43
- Body weight normalized to day 14 [7]: 100.00
- Body weight normalized to day 0 [8]: 109.59
- Body weight normalized to day 14 [8]: 101.05
- Body weight normalized to day 0 [9]: 111.54
- Body weight normalized to day 14 [9]: 102.88
- Body weight normalized to day 0 [10]: 113.57
- Body weight normalized to day 14 [10]: 104.76
- Body weight normalized to day 0 [11]: 116.13
- Body weight normalized to day 14 [11]: 107.11
- Body weight normalized to day 0 [12]: 120.62
- Body weight normalized to day 14 [12]: 111.26
- Body weight normalized to day 0 [13]: 122.88
- Body weight normalized to day 14 [13]: 113.31
- Body weight normalized to day 0 [14]: 125.36
- Body weight normalized to day 14 [14]: 115.59
- Body weight normalized to day 0 [15]: 125.33
- Body weight normalized to day 14 [15]: 115.58
- Body weight normalized to day 0 (E3 1.0 mg/kg on days 14+18, day 0): 100.00
- Body weight normalized to day 0 (E3 1.0 mg/kg on days 14+18, day 1): 98.81
- Body weight normalized to day 0 (E3 1.0 mg/kg on days 14+18, day 2): 103.18
- Body weight normalized to day 0 (E3 1.0 mg/kg on days 14+18, day 3): 106.52
- Body weight normalized to day 0 (E3 1.0 mg/kg on days 14+18, day 4): 110.52
- Body weight normalized to day 0 (E3 1.0 mg/kg on days 14+18, day 7): 121.54
- Body weight normalized to day 0 (E3 1.0 mg/kg on days 14+18, day 8): 124.28
- Body weight normalized to day 0 (E3 1.0 mg/kg on days 14+18, day 9): 125.60
- Body weight normalized to day 0 (E3 1.0 mg/kg on days 14+18, day 10): 124.11
- Body weight normalized to day 0 (E3 1.0 mg/kg on days 14+18, day 11): 121.27
- Body weight normalized to day 0 [16]: 111.72
- Body weight normalized to day 14 [16]: 100.00
- Body weight normalized to day 0 [17]: 112.30
- Body weight normalized to day 14 [17]: 100.53
- Body weight normalized to day 0 [18]: 115.00
- Body weight normalized to day 14 [18]: 102.95
- Body weight normalized to day 0 [19]: 118.08
- Body weight normalized to day 14 [19]: 105.74
- Body weight normalized to day 0 [20]: 121.16
- Body weight normalized to day 14 [20]: 108.46
- Body weight normalized to day 0 [21]: 126.90
- Body weight normalized to day 14 [21]: 113.57
- Body weight normalized to day 0 [22]: 130.41
- Body weight normalized to day 14 [22]: 116.71
- Body weight normalized to day 0 [23]: 137.81
- Body weight normalized to day 14 [23]: 123.35
- Body weight normalized to day 0 [24]: 138.93
- Body weight normalized to day 14 [24]: 124.41
- Body weight normalized to day 0 (E3 5.0 mg/kg on days 14+18, day 0): 100.00
- Body weight normalized to day 0 (E3 5.0 mg/kg on days 14+18, day 1): 98.25
- Body weight normalized to day 0 (E3 5.0 mg/kg on days 14+18, day 2): 101.82
- Body weight normalized to day 0 (E3 5.0 mg/kg on days 14+18, day 3): 105.47
- Body weight normalized to day 0 (E3 5.0 mg/kg on days 14+18, day 4): 109.29
- Body weight normalized to day 0 (E3 5.0 mg/kg on days 14+18, day 7): 119.77
- Body weight normalized to day 0 (E3 5.0 mg/kg on days 14+18, day 8): 121.96
- Body weight normalized to day 0 (E3 5.0 mg/kg on days 14+18, day 9): 123.04
- Body weight normalized to day 0 (E3 5.0 mg/kg on days 14+18, day 10): 120.00
- Body weight normalized to day 0 (E3 5.0 mg/kg on days 14+18, day 11): 117.97
- Body weight normalized to day 0 [25]: 111.58
- Body weight normalized to day 14 [25]: 100.00
- Body weight normalized to day 0 [26]: 113.33
- Body weight normalized to day 14 [26]: 101.61
- Body weight normalized to day 0 [27]: 116.06
- Body weight normalized to day 14 [27]: 104.09
- Body weight normalized to day 0 [28]: 119.14
- Body weight normalized to day 14 [28]: 106.85
- Body weight normalized to day 0 [29]: 122.14
- Body weight normalized to day 14 [29]: 109.53
- Body weight normalized to day 0 [30]: 128.60
- Body weight normalized to day 14 [30]: 115.32
- Body weight normalized to day 0 [31]: 132.82
- Body weight normalized to day 14 [31]: 119.11
- Body weight normalized to day 0 [32]: 140.79
- Body weight normalized to day 14 [32]: 126.36
- Body weight normalized to day 0 [33]: 141.77
- Body weight normalized to day 14 [33]: 127.25
- change in body weight vs vehicle-treated arthritic animals (two-way ANOVA) (data normalized to day 0, 0.03 mg/kg (p<0.002)): significant change in body weight
- change in body weight vs vehicle-treated arthritic animals (two-way ANOVA) (data normalized to day 14, 0.03 mg/kg (p<0.005)): significant change in body weight
- weight loss compared with saline treated arthritic rats (rat, in vivo): less apparent weight loss than saline treated arthritic rats
